Series [1] has as its target T1, NURC1 1-160 (Arabidopsis thaliana, UniProt Q9LZ65 1-160).
T1 sequence: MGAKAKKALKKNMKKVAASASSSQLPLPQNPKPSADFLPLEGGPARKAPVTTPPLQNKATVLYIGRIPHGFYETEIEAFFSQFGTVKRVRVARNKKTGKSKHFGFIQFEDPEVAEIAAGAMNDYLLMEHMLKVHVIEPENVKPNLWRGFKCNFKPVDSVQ
In words: MST. Conditions: MST: 10 nM labelled RNA, 20 mM Tris-HCl pH 8.0, 150 mM NaCl, 0.1 mg/ml BSA, 1 mM DTT, 0.1% Tween-20, room temperature, 5 min.

Series [2] concerns the target T2, NURC1-FL (Arabidopsis thaliana, UniProt Q9LZ65 1-222).
T2 sequence: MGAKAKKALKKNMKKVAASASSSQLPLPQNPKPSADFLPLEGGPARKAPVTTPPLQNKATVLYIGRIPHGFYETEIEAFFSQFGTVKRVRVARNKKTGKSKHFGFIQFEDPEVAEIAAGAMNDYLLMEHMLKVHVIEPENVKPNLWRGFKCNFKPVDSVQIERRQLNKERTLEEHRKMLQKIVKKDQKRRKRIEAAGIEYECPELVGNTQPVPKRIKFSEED
As to the kind of experiment: MST. Conditions: MST: 10 nM labelled RNA, 20 mM Tris-HCl pH 8.0, 150 mM NaCl, 0.1 mg/ml BSA, 1 mM DTT, 0.1% Tween-20, room temperature, 5 min.

Series [3] relates to NURC1 1-140 (Arabidopsis thaliana). As to the kind of experiment: MST. Conditions: MST: 10 nM labelled RNA, 20 mM Tris-HCl pH 8.0, 150 mM NaCl, 0.1 mg/ml BSA, 1 mM DTT, 0.1% Tween-20, room temperature, 5 min.
Series [4] addresses T1, NURC1 1-160. In words: MST; Kd only in figure/Table S5; MST: 10 nM labelled RNA, 20 mM Tris-HCl pH 8.0, 150 mM NaCl, 0.1 mg/ml BSA, 1 mM DTT, 0.1% Tween-20, room temperature, 5 min. Conditions: protein: recombinant; tags: 6xHis (pET-28a) removed with thrombin; label: Cy5-UTP incorporated (Cy5-UTP/UTP 1:15).
For series [5], the target named is T2, NURC1-FL. The description is as above. Conditions: protein: recombinant; tags: N-terminal 6xHis (pET-28a, NdeI/XhoI) removed with thrombin; label: Cy5-UTP incorporated (Cy5-UTP/UTP 1:15).

What is called Kd is the equilibrium constant for the complex coming apart. A lower Kd goes with a tighter complex. Take ITS2 FL: the Kd in the series with NURC1 1-160 [1] stood at 0.116 µM; with NURC1-FL [2] it was 0.228 µM; in series [3], 0.938 µM.

B1: ITS2 82-162 (stem III) (structured_RNA)
RNA: GGAGCCAAGGACGCCUGGAGCGUACCGACAUGCGGUGGUGAACUUGAUCCAUUACAUUUUAUCGGUCGCUCUUGUCCGGAA
On to B1, for which the binding result in the series with NURC1 1-160 [4] and with NURC1-FL [5] was “binds” each time.

B2: ITS2 1-79 (stem I and II) (structured_RNA)
RNA: GGAUCGUCGUCCCUCACCAUCCUUUGCUGAUGCGGGACGGAAGCUGGUCUCCCGUGUGUUACCGCACGCGUUGGCCUAAUU
Turning to B2, the binding result in the series with NURC1 1-160 [4] and in the series with NURC1-FL [5] was “binds” in each case.

Values taken from publication PMC10267116, “Structural and functional analysis of a plant nucleolar RNA chaperone-like protein”.
